In patent US20250277023A1 (published 2025):

target: PD-L1 (on CHO-PD-L1 cells) (UniProt Q9NZQ7 19-290); assay: FACS binding; Fig. 24
Sequence (Q9NZQ7 19-290): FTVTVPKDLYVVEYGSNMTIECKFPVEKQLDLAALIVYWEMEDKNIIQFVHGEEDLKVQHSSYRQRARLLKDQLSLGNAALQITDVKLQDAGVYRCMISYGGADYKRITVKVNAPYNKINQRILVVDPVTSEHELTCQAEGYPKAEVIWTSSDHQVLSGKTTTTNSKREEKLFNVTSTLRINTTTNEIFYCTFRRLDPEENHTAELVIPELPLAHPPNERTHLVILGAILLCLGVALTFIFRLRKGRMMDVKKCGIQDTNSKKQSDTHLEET

Row | EC50 | Binder
1 | 5.85 nM | R1084: PD-L1_VH (G44C)_IL15RA/PD-L1_VL(Q101C)_IL15/TIGIT-Fab (bispecific antibody) chain 1: QVQLQESGPGLVKPSETLSLTCAVYGDSITSGYWNWIRKPPGKCLEYIGYISYTGSTYQNPSLKSRITMSRDTSKNQYYLKLSSVTAADTAVYYCARSRAWIRTYFDYWGQGTLVTVSSGGGGSGGGGSGGGGSGGGGSGITCPPPMSVEHADIWVKSYSLYSRERYICNSGFKRKAGTSSLTECVLNKATNVAHWTTPSLKCIRDPALVHQRPAPPSTVTTAGVTPQPESLSPSGKEPAASSPSSNNTAATTAAIVPGSQLMPSKSPSTGTTEISSHESSHGTPSQTTAKNWELTASASHQPPGVYPQGHSDTTEPKSSDKTHTCPPCPAPELLGGPSVFLFPPKPKDTLMISRTPEVTCVVVDVSHEDPEVKFNWYVDGVEVHNAKTKPREEQYNSTYRVVSVLTVLHQDWLNGKEYKCKVSNKALPAPIEKTISKAKGQPREPQVYTLPPSREEMTKNQVSLTCRVKGFYPSDIAVEWESNGQPENNYKTTPPVLKSDGSFFLASKLTVDKSRWQQGNVFSCSVMHEALHNHYTQKSLSLSPGK chain 2: DIQMTQSPSSLSASVGDRVTITCSVSSSISSSNLHWYQQKPGKAPKPWIYGTSNLASGVPSRFSGSGSGTDYTLTISSLQPEDFATYYCQQWSSYPLTFGCGTKLEIKGGGGSGGGGSGGGGSGGGGSGNWVNVISDLKKIEDLIQSMHIDATLYTESDVHPSCKVTAMKCFLLELQVISLESGDASIHNTVQDLIILANNSLSSNGNVTESGCKECEELEEKNIKEFLQSFVHIVQMFINTS heavy: QVQLVQSGAEVKKPGSSVKVSCKASGYSFTSYWMNWVRQAPGQGLEWIGMIRPSDSETRLNQMFKDRVTITVDKSTSTAYMELSSLRSEDTAVYYCAGIHDYGHGAYWGQGTLVTVSSASTKGPSVFPLAPSSKSTSGGTAALGCLVKDYFPEPVTVSWNSGALTSGVHTFPAVLQSSGLYSLSSVVTVPSSSLGTQTYICNVNHKPSNTKVDKRVEPKSCDKTHTCPPCPAPELLGGPSVFLFPPKPKDTLMISRTPEVTCVVVDVSHEDPEVKFNWYVDGVEVHNAKTKPREEQYNSTYRVVSVLTVLHQDWLNGKEYKCKVSNKALPAPIEKTISKAKGQPREPQVYTLPPSREEMTKNQVSLWCLVKGFYPSDIAVEWESNGQPENNYDTTPPVLDSDGSFFLYSDLTVDKSRWQQGNVFSCSVMHEALHNHYTQKSLSLSPGK light: DIQMTQSPSSLSASVGDRVTITCRASENIYSNLAWYQQKPGKSPKLLVYAASHLPDGVPSRFSGSGSGTDYSLTISSLQPEDFATYYCQHFWGTPRTFGQGTKLEIKRTVAAPSVFIFPPSDEQLKSGTASVVCLLNNFYPREAKVQWKVDNALQSGNSQESVTEQDSKDSTYSLSSTLTLSKADYEKHKVYACEVTHQGLSSPVTKSFNRGEC
2 | 2.02 nM | R1086: TIGIT_VH_IL15RA (R35C)/TIGIT_VL_IL15 (E93C)/PD-L1-Fab (bispecific antibody) chain 1: QVQLVQSGAEVKKPGSSVKVSCKASGYSFTSYWMNWVRQAPGQGLEWIGMIRPSDSETRLNQMFKDRVTITVDKSTSTAYMELSSLRSEDTAVYYCAGIHDYGHGAYWGQGTLVTVSSGGGGSGGGGSGGGGSGGGGSGITCPPPMSVEHADIWVKSYSLYSRERYICNSGFKCKAGTSSLTECVLNKATNVAHWTTPSLKCIRDPALVHQRPAPPSTVTTAGVTPQPESLSPSGKEPAASSPSSNNTAATTAAIVPGSQLMPSKSPSTGTTEISSHESSHGTPSQTTAKNWELTASASHQPPGVYPQGHSDTTEPKSSDKTHTCPPCPAPELLGGPSVFLFPPKPKDTLMISRTPEVTCVVVDVSHEDPEVKFNWYVDGVEVHNAKTKPREEQYNSTYRVVSVLTVLHQDWLNGKEYKCKVSNKALPAPIEKTISKAKGQPREPQVYTLPPSREEMTKNQVSLTCRVKGFYPSDIAVEWESNGQPENNYKTTPPVLKSDGSFFLASKLTVDKSRWQQGNVFSCSVMHEALHNHYTQKSLSLSPGK chain 2: DIQMTQSPSSLSASVGDRVTITCRASENIYSNLAWYQQKPGKSPKLLVYAASHLPDGVPSRFSGSGSGTDYSLTISSLQPEDFATYYCQHFWGTPRTFGQGTKLEIKGGGGSGGGGSGGGGSGGGGSGNWVNVISDLKKIEDLIQSMHIDATLYTESDVHPSCKVTAMKCFLLELQVISLESGDASIHNTVQDLIILANNSLSSNGNVTESGCKECEELECKNIKEFLQSFVHIVQMFINTS heavy: QVQLQESGPGLVKPSETLSLTCAVYGDSITSGYWNWIRKPPGKGLEYIGYISYTGSTYQNPSLKSRITMSRDTSKNQYYLKLSSVTAADTAVYYCARSRAWIRTYFDYWGQGTLVTVSSASTKGPSVFPLAPSSKSTSGGTAALGCLVKDYFPEPVTVSWNSGALTSGVHTFPAVLQSSGLYSLSSVVTVPSSSLGTQTYICNVNHKPSNTKVDKRVEPKSCDKTHTCPPCPAPELLGGPSVFLFPPKPKDTLMISRTPEVTCVVVDVSHEDPEVKFNWYVDGVEVHNAKTKPREEQYNSTYRVVSVLTVLHQDWLNGKEYKCKVSNKALPAPIEKTISKAKGQPREPQVYTLPPSREEMTKNQVSLWCLVKGFYPSDIAVEWESNGQPENNYDTTPPVLDSDGSFFLYSDLTVDKSRWQQGNVFSCSVMHEALHNHYTQKSLSLSPGK light: DIQMTQSPSSLSASVGDRVTITCSVSSSISSSNLHWYQQKPGKAPKPWIYGTSNLASGVPSRFSGSGSGTDYTLTISSLQPEDFATYYCQQWSSYPLTFGQGTKLEIKRTVAAPSVFIFPPSDEQLKSGTASVVCLLNNFYPREAKVQWKVDNALQSGNSQESVTEQDSKDSTYSLSSTLTLSKADYEKHKVYACEVTHQGLSSPVTKSFNRGEC
3 | 3.2 nM | R1085: TIGIT_VH_IL15RA (P67C)/TIGIT_VL_IL15 (E90C)/PD-L1-Fab (bispecific antibody) chain 1: QVQLVQSGAEVKKPGSSVKVSCKASGYSFTSYWMNWVRQAPGQGLEWIGMIRPSDSETRLNQMFKDRVTITVDKSTSTAYMELSSLRSEDTAVYYCAGIHDYGHGAYWGQGTLVTVSSGGGGSGGGGSGGGGSGGGGSGITCPPPMSVEHADIWVKSYSLYSRERYICNSGFKRKAGTSSLTECVLNKATNVAHWTTPSLKCIRDCALVHQRPAPPSTVTTAGVTPQPESLSPSGKEPAASSPSSNNTAATTAAIVPGSQLMPSKSPSTGTTEISSHESSHGTPSQTTAKNWELTASASHQPPGVYPQGHSDTTEPKSSDKTHTCPPCPAPELLGGPSVFLFPPKPKDTLMISRTPEVTCVVVDVSHEDPEVKFNWYVDGVEVHNAKTKPREEQYNSTYRVVSVLTVLHQDWLNGKEYKCKVSNKALPAPIEKTISKAKGQPREPQVYTLPPSREEMTKNQVSLTCRVKGFYPSDIAVEWESNGQPENNYKTTPPVLKSDGSFFLASKLTVDKSRWQQGNVFSCSVMHEALHNHYTQKSLSLSPGK chain 2: DIQMTQSPSSLSASVGDRVTITCRASENIYSNLAWYQQKPGKSPKLLVYAASHLPDGVPSRFSGSGSGTDYSLTISSLQPEDFATYYCQHFWGTPRTFGQGTKLEIKGGGGSGGGGSGGGGSGGGGSGNWVNVISDLKKIEDLIQSMHIDATLYTESDVHPSCKVTAMKCFLLELQVISLESGDASIHNTVQDLIILANNSLSSNGNVTESGCKECECLEEKNIKEFLQSFVHIVQMFINTS heavy: QVQLQESGPGLVKPSETLSLTCAVYGDSITSGYWNWIRKPPGKGLEYIGYISYTGSTYQNPSLKSRITMSRDTSKNQYYLKLSSVTAADTAVYYCARSRAWIRTYFDYWGQGTLVTVSSASTKGPSVFPLAPSSKSTSGGTAALGCLVKDYFPEPVTVSWNSGALTSGVHTFPAVLQSSGLYSLSSVVTVPSSSLGTQTYICNVNHKPSNTKVDKRVEPKSCDKTHTCPPCPAPELLGGPSVFLFPPKPKDTLMISRTPEVTCVVVDVSHEDPEVKFNWYVDGVEVHNAKTKPREEQYNSTYRVVSVLTVLHQDWLNGKEYKCKVSNKALPAPIEKTISKAKGQPREPQVYTLPPSREEMTKNQVSLWCLVKGFYPSDIAVEWESNGQPENNYDTTPPVLDSDGSFFLYSDLTVDKSRWQQGNVFSCSVMHEALHNHYTQKSLSLSPGK light: DIQMTQSPSSLSASVGDRVTITCSVSSSISSSNLHWYQQKPGKAPKPWIYGTSNLASGVPSRFSGSGSGTDYTLTISSLQPEDFATYYCQQWSSYPLTFGQGTKLEIKRTVAAPSVFIFPPSDEQLKSGTASVVCLLNNFYPREAKVQWKVDNALQSGNSQESVTEQDSKDSTYSLSSTLTLSKADYEKHKVYACEVTHQGLSSPVTKSFNRGEC
